Target: GST
Assay: cross-linking; BS3 0.25 mM, 15 min at RT in PBS with 1 mM DTT, proteins mixed about 1:1; SDS-PAGE, anti-His and anti-GST Western blots

Chain of GST (natural protein) (P08515 2-218): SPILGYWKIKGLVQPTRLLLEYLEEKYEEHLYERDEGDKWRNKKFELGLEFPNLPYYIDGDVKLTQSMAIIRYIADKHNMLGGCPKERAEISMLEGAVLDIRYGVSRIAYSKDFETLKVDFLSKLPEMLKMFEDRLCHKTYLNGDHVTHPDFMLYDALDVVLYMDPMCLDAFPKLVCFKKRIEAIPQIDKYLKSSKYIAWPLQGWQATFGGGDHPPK

Substance: GST (natural protein)
- stoichiometry N: 2
